Assay results published in the RNAGym collection of RNA variant scans (doi:10.7554/elife.80360).

B1: HDV Ribozyme (parent)
chain: GGCCGGCAUGGUCCCAGCCUCCUCGCUGGCGCCGGCUGGGCAACAUUCCGAGGGGACCGUCCCCUCGGUAAUGGCGAAUGGGACCCA

Variants of: B1
Assay: self-cleavage, relative activity (ratio to wild type); higher = more cleavage; co-transcriptional

First: U20C C48G
Second: U20C C48U
The self-cleavage of the first is lower: 0.0594 for the first, 0.0791 for the second.

Compared with C19U U37C, C19U U37A is lower in self-cleavage: 0.185 for the first, 0.0936 for the second.

Going from C19U U37G to U20A C75U, the self-cleavage falls from 0.0755 to 0.0489.

Compared with U20C A71G, U20C A71U is lower in self-cleavage: 0.0978 for the first, 0.0898 for the second.

Going from U20A G59A to U20A G59U, the self-cleavage rises from 0.0302 to 0.222.

Compared with U20A G59C, C19U U65A is higher in self-cleavage: 0.0475 for the first, 0.0791 for the second.

First: C19U U65G
Second: C19U U65C
The self-cleavage of the first is higher: 0.182 for the first, 0.154 for the second.

Compared with C19U G34U, U20G C24G is higher in self-cleavage: 0.0755 for the first, 0.151 for the second.

Compared with U20G C24A, U20G C24U is lower in self-cleavage: 0.17 for the first, 0 for the second.

First: U20G A56C
Second: U20G A56G
The self-cleavage of the first is higher: 0.196 for the first, 0.151 for the second.

Compared with U20C G25C, U20C G25U is lower in self-cleavage: 0.227 for the first, 0.0415 for the second.

Compared with U20A G50U, C19U G55C is higher in self-cleavage: 0 for the first, 0.164 for the second.

First: C19U G55A
Second: C19U C85U
The self-cleavage of the first is higher: 0.225 for the first, 0.22 for the second.

Compared with U20C C64A, U20C C64G is lower in self-cleavage: 0.145 for the first, 0.128 for the second.

Going from U20A G54C to U20A G54U, the self-cleavage falls from 0.196 to 0.0923.

Going from U20C U60A to U20C U60C, the self-cleavage falls from 0.115 to 0.0978.

Going from U20C G53U to U20C G53A, the self-cleavage rises from 0.101 to 0.122.

Compared with C19U G53C, C19U G53A is higher in self-cleavage: 0.0875 for the first, 0.229 for the second.

Going from C19U C36A to C19U C36G, the self-cleavage rises from 0.0639 to 0.0723.

Going from U20C A56C to U20C A56G, the self-cleavage rises from 0.0615 to 0.101.

First: U20C A56U
Second: U20G C61G
The self-cleavage of the first is higher: 0.266 for the first, 0.0536 for the second.

Going from C19U C49A to U20G A45U, the self-cleavage rises from 0.0378 to 0.138.

Compared with U20G A45G, U20G A70C is higher in self-cleavage: 0.0755 for the first, 0.217 for the second.

First: U20C C61G
Second: U20C C61A
The self-cleavage of the first is lower: 0.128 for the first, 0.166 for the second.

Compared with C19U G38C, C19U G38U is lower in self-cleavage: 0.0875 for the first, 0 for the second.

Compared with U20C G35C, U20C G35A is higher in self-cleavage: 0 for the first, 0.101 for the second.

Going from U20C U27A to U20C U27C, the self-cleavage falls from 0.196 to 0.

First: U20A G80C
Second: U20A G80U
The self-cleavage of the first is higher: 0.0992 for the first, 0.0141 for the second.

First: U20G A83U
Second: U20C C75U
The self-cleavage of the first is higher: 0.0554 for the first, 0 for the second.

Going from U20C C75G to C19U G80U, the self-cleavage rises from 0 to 0.0642.

Compared with C19U G80C, U20A U69C is lower in self-cleavage: 0.112 for the first, 0 for the second.

Compared with U20A U69G, C19U G39A is higher in self-cleavage: 0.0519 for the first, 0.0779 for the second.

Compared with C19U G39U, U20C U79G is higher in self-cleavage: 0.0449 for the first, 0.185 for the second.

Compared with U20C C62U, U20A C63U is higher in self-cleavage: 0.0875 for the first, 0.101 for the second.

Going from U20A C63A to U20A G76U, the self-cleavage falls from 0.0504 to 0.

Compared with U20A G76A, U20A G40C is higher in self-cleavage: 0.135 for the first, 0.178 for the second.

Compared with U20C C84U, U20A C86G is higher in self-cleavage: 0.111 for the first, 0.166 for the second.

Going from U20A C86U to U20A C86A, the self-cleavage falls from 0.119 to 0.0723.

Compared with U20G C57G, U20G C57U is higher in self-cleavage: 0.208 for the first, 0.302 for the second.

Compared with U20G C57A, U20A A43G is lower in self-cleavage: 0.111 for the first, 0.0573 for the second.

Going from U20A G55U to U20A G55C, the self-cleavage rises from 0.0302 to 0.0536.

Compared with U20A G82U, U20A G82C is lower in self-cleavage: 0.0875 for the first, 0 for the second.

Going from U20G C21A to U20G C21G, the self-cleavage falls from 0.142 to 0.

First: C19U U46A
Second: U20A A87C
The self-cleavage of the first is higher: 0.0875 for the first, 0.0631 for the second.

First: U20A A87U
Second: U20A A87G
The self-cleavage of the first is lower: 0.0282 for the first, 0.0831 for the second.

Going from C19U U69A to C19U U69G, the self-cleavage falls from 0.212 to 0.0692.

Compared with U20C C41U, U20C C41A is higher in self-cleavage: 0.0449 for the first, 0.156 for the second.

Compared with C19U C66G, U20C G81C is lower in self-cleavage: 0.155 for the first, 0 for the second.

Going from U20C G81A to U20C G39U, the self-cleavage rises from 0 to 0.0386.

Going from U20C G50C to U20C G50U, the self-cleavage falls from 0.312 to 0.163.

Going from U20A G25C to U20A G25A, the self-cleavage falls from 0.151 to 0.0852.

Compared with U20A G25U, C19U C48G is lower in self-cleavage: 0.119 for the first, 0.0594 for the second.

Going from C19U C48A to C19U C48U, the self-cleavage falls from 0.117 to 0.0978.

Compared with C19U G35A, C19U G35C is lower in self-cleavage: 0.234 for the first, 0.0831 for the second.

Compared with U20A C41A, U20A C41U is lower in self-cleavage: 0.0396 for the first, 0 for the second.

First: C19U C58G
Second: C19U C58A
The self-cleavage of the first is higher: 0.0959 for the first, 0.086 for the second.

Compared with C19U C58U, C19U G81C is lower in self-cleavage: 0.126 for the first, 0.101 for the second.

Compared with C19U G81A, U20A U65A is higher in self-cleavage: 0 for the first, 0.0504 for the second.

Compared with U20A G29U, U20C C21U is lower in self-cleavage: 0.0875 for the first, 0.0339 for the second.

Compared with C19U G25A, U20C C36A is lower in self-cleavage: 0.0252 for the first, 0 for the second.

Compared with U20A C26U, U20A C26A is lower in self-cleavage: 0.158 for the first, 0.0594 for the second.

First: U20G C48U
Second: U20G C48G
The self-cleavage of the first is higher: 0.237 for the first, 0.222 for the second.

Compared with U20G C48A, C19U C61G is higher in self-cleavage: 0.0723 for the first, 0.176 for the second.

Going from U20G C36G to U20G C36U, the self-cleavage rises from 0.151 to 0.155.

Compared with U20A U72G, U20A U72A is higher in self-cleavage: 0 for the first, 0.107 for the second.

First: C19U G76U
Second: C19U G76C
The self-cleavage of the first is higher: 0.288 for the first, 0.277 for the second.

Compared with U20C A78G, U20C A78C is lower in self-cleavage: 0.0755 for the first, 0.0449 for the second.

Going from C19U G74A to C19U G74C, the self-cleavage rises from 0.0961 to 0.126.

Compared with C19U G67A, C19U C33U is higher in self-cleavage: 0.0739 for the first, 0.234 for the second.

First: C19U C33G
Second: U20A G38U
The self-cleavage of the first is lower: 0.0923 for the first, 0.122 for the second.

Going from U20A G38A to U20G C63A, the self-cleavage rises from 0.0332 to 0.214.

Going from C19U C62U to C19U C62A, the self-cleavage falls from 0.244 to 0.142.

First: U20A A51C
Second: U20A A51U
The self-cleavage of the first is lower: 0 for the first, 0.104 for the second.

Compared with U20A A51G, U20A U37G is higher in self-cleavage: 0 for the first, 0.277 for the second.

First: U20A U37A
Second: U20C A43C
The self-cleavage of the first is lower: 0.0831 for the first, 0.178 for the second.

First: U20C A43G
Second: U20C A43U
The self-cleavage of the first is higher: 0.0978 for the first, 0.0378 for the second.

First: U20C G80C
Second: U20G C41U
The self-cleavage of the first is lower: 0.106 for the first, 0.287 for the second.

Compared with U20G C41G, U20A C64U is lower in self-cleavage: 0.166 for the first, 0.138 for the second.

Going from U20C G31A to U20A G68A, the self-cleavage rises from 0.0415 to 0.0504.

Going from U20A G68U to C19U C64G, the self-cleavage rises from 0 to 0.0923.

Going from C19U C64U to C19U C64A, the self-cleavage falls from 0.148 to 0.0554.

First: U20G C30G
Second: U20G C30U
The self-cleavage of the first is higher: 0.0554 for the first, 0 for the second.

Compared with U20G C33A, U20C G28C is lower in self-cleavage: 0.119 for the first, 0.0755 for the second.

For U20G A42G, the self-cleavage was 0.138.
